Legend:
[1] = molecular target: T1, human C3b (Homo sapiens, UniProt P01024); experiment: SPR (Biacore T100) binding to human C3b; settings: Table 19, SPR; read-out: Affinity human C3b
T1 construct: C3b is derived from native C3 and is the larger of two elements formed by the cleavage of C3
Description: The kinetic parameters of the candidates are determined using a surface plasmon resonance (SPR) and Biacore T100 device. C3 and different variants thereof (Table 19) are immobilized as a ligand on a HC30M SPR sensor chip (XanTec bionanalytics, Germany) using EDC/[…] linking chemistry. Five increasing concentrations of each molecule (analyte) are consecutively injected using the single cycle kinetics (SCK) mode to determine the kinetic parameters. Regeneration between the candidates is done with 10 mM glycine*HCl, 2 M NaCl, pH 3.5. The data is fitted to a 1:1 Langmuir binding model and the kinetic parameters of on-rate (ka), off-rate (kd), and affinity […] were determined.

[2] = Concentration-dependent monomeric stability study at 37° C.; type: physicochemical; settings: for Monomeric purity/content loss after two weeks incubation at 37° C.: >100 mg/mL protein concentration; for Monomeric content after 2 weeks at 37° C. / Monomeric content at start: Clone XI 152 mg/mL, Clone X 100 mg/mL
Description: The stability of Clone VI's heavy chain framework was explored by introducing framework substitutions, thereby creating inter alia Clone X (SEQ ID NO: 38). Clone X and its disulfide bond stabilized variant Clone XI (SEQ ID NO: 39) were compared in a stability study at 37° C. and >100 mg/mL protein concentration.

T1 sequence (P01024 23-667 limits assumed): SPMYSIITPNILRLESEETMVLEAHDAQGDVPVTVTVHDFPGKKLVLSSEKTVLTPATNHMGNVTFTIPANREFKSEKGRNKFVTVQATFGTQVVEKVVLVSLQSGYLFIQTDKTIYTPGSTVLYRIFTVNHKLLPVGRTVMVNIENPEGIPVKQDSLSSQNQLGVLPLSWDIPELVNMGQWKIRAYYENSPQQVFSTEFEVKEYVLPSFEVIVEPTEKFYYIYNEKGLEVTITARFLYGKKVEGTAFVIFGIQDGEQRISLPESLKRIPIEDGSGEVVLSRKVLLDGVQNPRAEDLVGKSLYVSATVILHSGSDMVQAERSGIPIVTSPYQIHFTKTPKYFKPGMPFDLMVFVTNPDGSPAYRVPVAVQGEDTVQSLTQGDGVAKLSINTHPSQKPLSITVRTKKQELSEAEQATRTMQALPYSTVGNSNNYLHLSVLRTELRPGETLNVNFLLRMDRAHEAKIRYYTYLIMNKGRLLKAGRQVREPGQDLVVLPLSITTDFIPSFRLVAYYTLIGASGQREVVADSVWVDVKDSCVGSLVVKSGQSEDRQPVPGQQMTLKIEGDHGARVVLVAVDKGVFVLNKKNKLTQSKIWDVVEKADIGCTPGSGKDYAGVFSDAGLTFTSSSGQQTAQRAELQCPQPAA
T1 sequence (P01024 749-1663 limits assumed): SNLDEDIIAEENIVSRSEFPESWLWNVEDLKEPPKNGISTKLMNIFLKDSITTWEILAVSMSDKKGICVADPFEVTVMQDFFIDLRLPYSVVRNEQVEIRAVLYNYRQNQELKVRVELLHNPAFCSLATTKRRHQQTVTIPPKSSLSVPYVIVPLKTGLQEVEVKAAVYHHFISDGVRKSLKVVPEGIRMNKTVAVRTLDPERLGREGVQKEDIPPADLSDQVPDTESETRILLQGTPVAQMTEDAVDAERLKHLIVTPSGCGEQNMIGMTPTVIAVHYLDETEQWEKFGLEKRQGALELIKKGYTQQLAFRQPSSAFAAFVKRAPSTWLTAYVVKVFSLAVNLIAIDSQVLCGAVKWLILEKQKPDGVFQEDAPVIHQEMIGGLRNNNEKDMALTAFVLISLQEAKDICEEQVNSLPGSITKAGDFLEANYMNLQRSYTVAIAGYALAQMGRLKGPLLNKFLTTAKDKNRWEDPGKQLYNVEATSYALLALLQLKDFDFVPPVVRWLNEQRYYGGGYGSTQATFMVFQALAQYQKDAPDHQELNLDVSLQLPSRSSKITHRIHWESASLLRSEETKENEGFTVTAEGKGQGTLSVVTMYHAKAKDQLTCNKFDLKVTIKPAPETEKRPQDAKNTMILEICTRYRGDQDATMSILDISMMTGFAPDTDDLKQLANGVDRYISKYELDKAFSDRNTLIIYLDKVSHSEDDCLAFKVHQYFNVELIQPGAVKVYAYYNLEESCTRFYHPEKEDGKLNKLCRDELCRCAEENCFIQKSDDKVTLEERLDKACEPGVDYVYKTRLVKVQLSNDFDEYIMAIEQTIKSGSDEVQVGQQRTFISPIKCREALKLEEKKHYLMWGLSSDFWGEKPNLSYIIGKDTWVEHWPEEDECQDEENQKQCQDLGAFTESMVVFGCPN

B1: Compound A3 Fab: NGM621 surrogate in a Fab format (antibody, V domains shown)
VH: QVQLVQSGAEVKKPGASVKVSCKASGYTFTDFYMDWVRQAPGQRLEWMGYIYPHNGGTTYNQQFTGRVTITVDKSASTAYMELSSLRSEDTAVYYCARRGGFDFDYWGQGTLVTVSS
VL: DIQMTQSPSSLSASVGDRVTITCKASENVDTYVSWYQQKPGKAPKLLIYGASNRYTGVPSRFSGSGSGTDFTFTISSLQPEDIATYHCGQSHSYPLTFGQGTKLEIKR
Question: For B1, which Kd [1] is on record?
Answer: Its Kd is over 34 nM.

B2: Clone XI: disulfide bond stabilized variant of Clone X, SEQ ID NO: 39 (protein)
scFv: MQLVLTQSPSASASLGASVKLTCTLSSAHKTYTIDWYQQQPEKCPRYLMQLKSDGSYTKGTGVPDRFSGSSSGAERYLTISSLQSEDEADYYCGTDYGGGYVFGGGTKLTVLGGGGGSGGGGSGGGGSGGGGSQVQVVESGGGSVQPGRSLRLSCTVSGFSLYNYAMNWVRQAPGKGLEWIGIINTDGNTNYASWAKGRFTISTDNSKNTVYLQMNSLRAEDTASYYCARAVGYHHHALDPWGCGTSVTVSS
modifications: ScFv
Question: What does the source list for B2?
Answer: Monomeric purity/content loss after two weeks incubation at 37° C. [2]: 3.3%; Monomeric content after 2 weeks at 37° C. [2]: 96.5%; Monomeric content at start [2]: 99.8%

B3: Clone X: Clone VI with heavy chain framework substitutions, SEQ ID NO: 38 (protein)
scFv: MQLVLTQSPSASASLGASVKLTCTLSSAHKTYTIDWYQQQPEKGPRYLMQLKSDGSYTKGTGVPDRFSGSSSGAERYLTISSLQSEDEADYYCGTDYGGGYVFGGGTKLTVLGGGGGSGGGGSGGGGSGGGGSQVQVVESGGGSVQPGRSLRLSCTVSGFSLYNYAMNWVRQAPGKGLEWIGIINTDGNTNYASWAKGRFTISTDNSKNTVYLQMNSLRAEDTASYYCARAVGYHHHALDPWGQGTSVTVSS
modifications: ScFv
Question: Which “Monomeric purity/content loss after two weeks incubation at 37° C.” value [2] does the source give for B3 here?
Answer: The value was 60.4%.

Question: What about the “Monomeric content after 2 weeks at 37° C.” value [2] of the same molecule?
Answer: The value was 39.3%.

Question: What about the “Monomeric content at start” value [2] of the same molecule?
Answer: The value was 99.7%.
